In assay [1] the target is mouse plasma proteins. In words: rapid equilibrium dialysis (RED), mouse plasma, 500 ng/mL. In general terms: In equilibrium dialysis free small molecules cross a membrane that holds back macromolecules.
Assay [2] concerns the target N-terminal polyhistidine tagged recombinant rat neurolysin (rat) (UniProt P42676). In words: cell-based or functional assay.

Regarding His-Trp (peptide), the fu in Plasma (fraction unbound) in assay [1] amounted to 0.93.
Turning to “NlnA#1, NSC 374121, L-histidyl-L-tyrosine (peptide)”, in assay [2], the formation of angiotensin-(1-7) from angiotensin I (20 µM), mass spectrometry, 100 µM modulator came to 6 fold; the formation of bradykinin-(1-5) from bradykinin (20 µM), mass spectrometry, 100 µM modulator came out at 2 fold; the formation of neurotensin-(1-10) from neurotensin (20 µM), mass spectrometry, 100 µM modulator was found to be 3 fold. This substance also registered a fu in Plasma (fraction unbound) in assay [1] of 0.66.
For “NlnA#2, NSC 523374, D,L-histidyl-D,L-histidine (peptide)”, in assay [2], the formation of angiotensin-(1-7) from angiotensin I (20 µM), mass spectrometry, 100 µM modulator was 6 fold; the formation of bradykinin-(1-5) from bradykinin (20 µM), mass spectrometry, 100 µM modulator was 2 fold; the formation of neurotensin-(1-10) from neurotensin (20 µM), mass spectrometry, 100 µM modulator was 3 fold.
